Our source for the IC50 values is the Immune Epitope Database (IEDB).

One experiment concerns the target HLA-A*02:02. Put plainly: IEDB peptide-MHC binding, cellular MHC/competitive/fluorescence; ≥ and ≤ were set here for values at or beyond the usual limits of such assays.
The target in a further experiment is HLA-A*02:06. In words: IEDB peptide-MHC binding, purified MHC/competitive/radioactivity; ≥ and ≤ were set here for values at or beyond the usual limits of such assays.
Another experiment concerns the target HLA-A*02:03. The experiment is described as above.
The next experiment deals with HLA-A*68:02. The experiment is described as above.
For experiment [1], the target named is HLA-A*02:01. The description is as above.
Experiment [2] deals with HLA-A*02:01. Put plainly: IEDB peptide-MHC binding, cellular MHC/competitive/fluorescence; ≥ and ≤ were set here for values at or beyond the usual limits of such assays. The settings on record: source organism: Vaccinia virus WR.
Setting [3] is: source organism: Vaccinia virus WR.
Where [4] appears, read: source organism: Influenza A virus.

With AVIIMAINV, the IC50 (in general, the midpoint of a concentration-inhibition curve) with HLA-A*02:02 (setting [3]) stood at 9.07 µM; with HLA-A*02:06 (setting [3]) it was 0.065 µM; with HLA-A*02:03 (setting [3]), 2.76 µM; in the experiment with HLA-A*68:02 (setting [3]), 1.24 µM; with HLA-A*02:01 [1] (setting [3]), 0.963 µM.
With CTIVDSMII, the IC50 with HLA-A*02:01 [2] amounted to 5.16 µM; with HLA-A*02:02 (setting [3]), 13.9 µM; in the experiment with HLA-A*02:06 (setting [3]), 4.58 µM; with HLA-A*02:03 (setting [3]), 1.79 µM; with HLA-A*68:02 (setting [3]) it was 3.08 µM.
In the case of CVNGSCFTV, the IC50 in the experiment with HLA-A*02:02 (setting [4]) came out at 12.4 µM; in the experiment with HLA-A*02:06 (setting [4]), 1.99 µM; in the experiment with HLA-A*02:03 (setting [4]), 1.13 µM; with HLA-A*68:02 (setting [4]) it was 3.25 µM; with HLA-A*02:01 [1] (setting [4]), 3.95 µM.
For DINVIGLIVI, the IC50 is 7.15 µM with HLA-A*02:02 (setting [3]); 2.79 µM in the experiment with HLA-A*02:06 (setting [3]); 2.81 µM in the experiment with HLA-A*02:03 (setting [3]); 2.19 µM with HLA-A*68:02 (setting [3]); 1.35 µM with HLA-A*02:01 [1] (setting [3]).
For the sequence DISDVKVLAA, the IC50 with HLA-A*02:01 [2] is at least 70 µM; in the experiment with HLA-A*02:02 (setting [3]), 33.8 µM; with HLA-A*02:06 (setting [3]), 4.61 µM; with HLA-A*02:03 (setting [3]), 2.2 µM; with HLA-A*68:02 (setting [3]), 4.98 µM.
The like results for DLTALLSCI were, in that order, 13.5 µM, 5.2 µM, 4.88 µM, 0.996 µM and 1.78 µM.
For the sequence EISSNDNAKI, the IC50 came out at 11.2 µM in the experiment with HLA-A*02:02 (setting [3]); 0.162 µM with HLA-A*02:06 (setting [3]); 0.194 µM with HLA-A*02:03 (setting [3]); 0.122 µM with HLA-A*68:02 (setting [3]); 0.508 µM in the experiment with HLA-A*02:01 [1] (setting [3]).
Turning to EVIERINLLV, the IC50 with HLA-A*02:02 (setting [3]) amounted to 19.7 µM; with HLA-A*02:06 (setting [3]), 0.3 µM; with HLA-A*02:03 (setting [3]), 3.33 µM; in the experiment with HLA-A*68:02 (setting [3]), 0.02 µM; in the experiment with HLA-A*02:01 [1] (setting [3]), 2.69 µM.
As to FTDCRTIDA, the IC50 in the experiment with HLA-A*02:02 (setting [3]) was determined as 10.9 µM; in the experiment with HLA-A*02:06 (setting [3]), 2.71 µM; in the experiment with HLA-A*02:03 (setting [3]), 2.68 µM; with HLA-A*68:02 (setting [3]), 3.42 µM; in the experiment with HLA-A*02:01 [1] (setting [3]) it was 3.77 µM.
Turning to GIKGLDERFV, the IC50 with HLA-A*02:02 (setting [3]) worked out at 6.19 µM; in the experiment with HLA-A*02:06 (setting [3]) it was 0.94 µM; with HLA-A*02:03 (setting [3]), 0.844 µM; with HLA-A*68:02 (setting [3]), 0.492 µM; with HLA-A*02:01 [1] (setting [3]), 4.39 µM.
With GVPHSVFIA, the IC50 is 5.35 µM in the experiment with HLA-A*02:01 [2]; 5.37 µM in the experiment with HLA-A*02:02 (setting [3]); 0.101 µM in the experiment with HLA-A*02:06 (setting [3]); 3.63 µM with HLA-A*02:03 (setting [3]); 2.99 µM in the experiment with HLA-A*68:02 (setting [3]).
In the same order, the values of HINDQKFDDV are 13.2 µM, 5.86 µM, 1.19 µM, 1.16 µM and 1.12 µM.
The like results for HTNHSDISM were, in that order, 12.1 µM, 8.81 µM, 1.2 µM, 4.14 µM and 0.026 µM.
The like results for ITPTIEDDKI were, in that order, 18.8 µM, 18.7 µM, 1.5 µM, 4.2 µM and 2.19 µM.
For ITRLEVIGL, the IC50 with HLA-A*02:02 (setting [3]) came to 5.51 µM; with HLA-A*02:06 (setting [3]), 0.776 µM; with HLA-A*02:03 (setting [3]) it was 0.213 µM; with HLA-A*68:02 (setting [3]) it was 4.46 µM; with HLA-A*02:01 [1] (setting [3]), 3.66 µM.
The like results for IVAAVIIMA were, in that order, 10.4 µM, 3.57 µM, 2.66 µM, 0.024 µM and 1.81 µM.
In the same order, the values of IVCSKTVKNV are 10.8 µM, 2.76 µM, 0.503 µM, 1.73 µM and 1.42 µM.
Regarding KLVETGFVI, the IC50 with HLA-A*02:01 [2] was 14.3 µM; with HLA-A*02:02 (setting [3]) it was 13.2 µM; in the experiment with HLA-A*02:06 (setting [3]) it was 0.2 µM; with HLA-A*02:03 (setting [3]), 1.07 µM; in the experiment with HLA-A*68:02 (setting [3]), 1.05 µM.
